According to the supplement of paper PMC9170038:

Tested on: MS2 coat protein
Experiment: apparent KD of MS2 coat protein; higher = weaker reporter binding
Settings: Eterna round: R107
How it was run: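 The buffer was 100 mM Tris-HCl pH 7.5 with 80 mM KCl and 4 mM MgCl2, used without or with constant ligand. In it, RNA switches transcribed on-chip from Illumina sequencing clusters were titrated with SNAP-549-labelled MS2 coat protein in twofold steps from 0.7 or 1.5 nM to 3 µM. Apparent KD for each design is the median of its normalised cluster binding-curve fits.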

[1] = input ligand: theophylline 20 uM
[2] = input ligand: theophylline 2 mM
[3] = input ligand: tryptophan 2.4 mM

Sequence | apparent KD of MS2 coat protein (input ligand: arginine 13.2 mM) [nM] | apparent KD of MS2 coat protein (input ligand: none) [nM] | apparent KD of MS2 coat protein [1] [nM] | apparent KD of MS2 coat protein [2] [nM] | apparent KD of MS2 coat protein [3] [nM]
AGUCUUGUGGGAAGGAGCGCAUACUUCACAUGAGGAUCACCCAUGUCAAGACGUGAGUCAGUGCAGGUAGGUCGCCUAACUAAGA [Same State - Arginine B (Freestyle 15)] | 53.1 | 30.3 | 37.4 | 35.8 | 28.2
AUUAAAGUUUAUAAGGAAAUUGAAACAGAAGGAGCGUGAGUAAUCACAGGUAGGUCGCUGGUAGUACAUGAGGAUCACCCAUGUU [JR_Nu_SSArginiA_Sub020] | 22.2 | 20.1 | 30.6 | 24.2 | 21.3
AACAUGAGGAUCACCCAUGUCGGGCCGGAGCGAGGACCGGUACGGCCGCCACUCGAGACAUGAGGAUCACCCAUGUAGGGCGAAA [Exclusion Tryptophan A GF21] | 61.5 | 116 | 141 | 189 | 186
ACAUGAGGAUCACCCAUGUAAGAUUCAGAAGGAGCGGGAAAUAACCCAGGUAGGUCGCUGAAGUUUGGUUUAUUGUGUUCGUGAA [#07 Exclusion - Arginine A] | 10.2 | 10.4 | 13.3 | 11.5 | 11.5
AGAGCAUUGACGGCCGCCACUCGUGUCACAUGAGGAUCACCCAUGUGAUGGGUGAUAGCCCGGUUGAGGACCGGGUCAAUGCUCA [Omei Tryp SS B v7] | 13.1 |  | 16.8 | 16.2 | 
UUAACGAGCUGAAGGAGCGCUCUUCAUCAACAUGAGGAUCACCCAUGUACACAUAAUAGGGAGCAGGUAGGUCGCAGCGGGAUGG [#24 Same State - Arginine B] | 14.2 | 16.2 | 24.8 | 17.4 | 17.2
CAAUAAGUAACUGAUACCAGUGUACUGACAUGAGGAUCACCCAUGUUGGGUUUUGUUGUACACCCUUGGCAGCAGAAUCUUAUUG [AstrosExyTheB#12] | 44.2 |  | 67.2 |  | 55.4
AUUCAUAAUUGGGUAAAUGGAUAGAGUGAUACCAGUCAUAUACAUGACCCUUGGCAGCACAAGGACAUGAGGAUCACCCAUGUCA [Same State Theophylline A GF22] | 21.1 |  | 26.7 |  | 28.9
GCAUCCUAGUCGGCCGCCACUGCAUCACCAGUGGCAGGUGAUCAACAUGAGGAUCACCCAUGUAGCAGGACCGGGACUAGGAUGC [(Trp1)-(TM)''-(TM)'-(Ms2)-(Trp2)_Design4] | 113 |  | 163 | 168 | 
ACUAGUUGUGCAGAUACCAGACACGAGGAUCACCCGUGUUUGGGAUGUUCGCAUCUUCCUGUCCCUUGGCAGCUGUACAUCUAGA [Omei Theo B Exc v8] | 15.8 | 15.1 | 23.5 | 221 | 17
UUAUUUAUAAUGGAUACCAGUCGUAUGGCCCGGAAUCCUGACAUGAGGAUCACCCAUGUCGACCCUUGGCAGCUGUUAUGGGUUU [XTheo B #22] | 13.7 |  | 16.3 |  | 14.9
GGUCUCGCGGGCGAUACCAGCUUGAUCGUACUGGCCUGGUACAUGAGGAUCACCCAUGUAAGCCCUUGGCAGCGCGCGCGAGACC [#1 Exclusion - Theophylline B Attempt #5 (HarryS)] | 10.4 | 10.6 | 16.4 | 32.1 | 11.9
UCCCUACCGUCGGCCGCCACUGGGUCAUACAGUUCGUAACUACAUGAGGAUCACCCAUGUGCAGCCAGGACCGGGACGCGCCUUG [theeternabot_sameState_MS2_Trp_B_16] | 30.2 |  | 153 | 148 | 
CUAUGCAGGUCGGCCGCCACUACACACAUGAGGAUCACCCAUGUAGUUACUGGGUGAAGUGGCAGUAGGACCGGGACCUGCAUAC [Brourdmod10] | 139 | 391 | 394 | 817 | 362
UACCGAUGAAGAAGGAGCGUGCGUGGUUCACAUGAGGAUCACCCAUGUGCUUUAUACUAGGCACAGGUAGGUCGCUUCAUCGGUA [SSAB NP+V+V2 #22] | 24.3 | 19.4 | 30.7 | 27.8 | 23.3
CGAGUGAGUUCAAUCGAAUAACGGUUUUCGCGAGGACCGGUACGGCCGCCACUCGUGUGAUAUCACACAUGAGGAUCACCCAUGU [3'end-1] | 34.7 |  | 49 | 63.4 | 
GAGCUGAUGUAGAGCCUUUAGUUCUGAGAUACCAGUACAGAAAUGUACCCUUGGCAGCUCAGCUUUACAUGAGGAUCACCCAUGU [Ex Theophylline A 17] | 20 |  | 27.7 |  | 23.5
AGGGACAUGAGGAUCACCCAUGUUGAAACUCGAGGACCGGUACGGCCGCCACUCGUAUAAUCGAUGUCCAUUUGGGAUUCCGGCU [theeternabot_sameState_MS2_Trp_A_17] | 21.4 |  | 32.8 | 39 | 
